# Measurements: US20160289684
# What was measured:
# [1] = system: T1, GST fusion protein carrying the SP2 motif of NFAT
# T1 sequence: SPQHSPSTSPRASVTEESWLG
# [2] = system: T2, GST fusion protein carrying the SP3 motif of NFAT
# T2 sequence: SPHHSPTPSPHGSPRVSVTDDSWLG
# [3] = biological target: T3, GST fusion protein containing the N-terminal regulatory domain (amino acids 1-319) of NFAT2 (UniProt O95644)
# T3 sequence: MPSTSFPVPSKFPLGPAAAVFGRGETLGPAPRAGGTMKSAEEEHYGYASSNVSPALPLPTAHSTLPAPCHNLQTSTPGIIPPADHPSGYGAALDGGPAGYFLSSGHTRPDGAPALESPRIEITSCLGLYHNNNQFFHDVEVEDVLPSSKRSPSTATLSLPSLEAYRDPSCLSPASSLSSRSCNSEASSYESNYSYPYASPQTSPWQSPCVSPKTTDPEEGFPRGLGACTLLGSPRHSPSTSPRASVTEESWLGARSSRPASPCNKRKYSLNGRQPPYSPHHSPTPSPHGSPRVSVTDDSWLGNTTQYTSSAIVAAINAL
# [4] = biological target: T4, GST fusion protein containing the NFAT2 phosphorylation site S151 flanked with 9-11 amino acids (UniProt O95644)
# T4 sequence: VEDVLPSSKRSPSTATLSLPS
# [5] = biological target: T5, GST fusion protein containing the NFAT2 phosphorylation site S161 flanked with 9-11 amino acids (UniProt O95644)
# T5 sequence: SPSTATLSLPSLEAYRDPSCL
# [6] = biological target: T6, GST fusion protein containing the NFAT2 phosphorylation site S324 flanked with 9-11 amino acids (UniProt O95644)
# T6 sequence: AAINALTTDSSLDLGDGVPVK
substance,measurement,setting,value
IKKε purified from 293T cells,in vitro kinase assay,[1],weakly the SP2 site
same,in vitro kinase assay,[2],IKKε efficiently phosphorylated the SP3 motif
same,in vitro kinase assay,[3],purified IKKε was sufficient to phosphorylate the N-terminal regulatory domain (amino acids 1-319) of NFAT2 by an in vitro kinase assay
same,in vitro kinase assay,[4],"peptides containing three serines, except the peptides containing S^117, were phosphorylated by IKKε in vitro"
same,in vitro kinase assay,[5],"peptides containing three serines, except the peptides containing S^117, were phosphorylated by IKKε in vitro"
same,in vitro kinase assay,[6],"peptides containing three serines, except the peptides containing S^117, were phosphorylated by IKKε in vitro"
